Test results reported in PMC9482650, “Quantitative fragmentomics allow affinity mapping of interactomes” (Nature Communications, 2022).

target: PDZRN4_1, Q6ZMN7; assay: holdup assay; set-up: key: below the threshold = too weak to quantify, mostly under pKd 3.1 to 4; conditions: plain residues with an end cap or a label only (N-terminal biotin on a linker: ado-ado)
Sequence (Q6ZMN7 213-318): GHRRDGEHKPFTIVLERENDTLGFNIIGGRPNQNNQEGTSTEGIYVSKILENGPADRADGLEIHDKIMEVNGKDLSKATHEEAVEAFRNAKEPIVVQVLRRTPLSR

Binder	pKd
SRPHTNETSL [MCC, P23508]	5.22
GSQSQVETEA [FKBP4, Q02790]	below the threshold
PSVYSRSQYV [CLDN8, P56748]	below the threshold
VKQYADVEGF [HNRNPK, P61978;P61978-2]	below the threshold
QQGLLPHSSC [TYRO3, Q06418]	below the threshold
FHSIKQSTAV [CRHR1, P34998]	4.1
QLGSPTADLA [SIPA1, Q96FS4]	below the threshold
GDSSRKEYFI [GYPC, P04921]	below the threshold
ATKDKKITTV [EXOC4, Q96A65]	3.82
EAVTVESTSL [SLC22A11, Q9NSA0]	4.43

Now from value to binder:

pKd	Binder
4.03	IQISELETNV [SLC1A7, O00341]
below the threshold	FLVTEFNVML [DFNB31, Q9P202]
below the threshold	TFSRRPKTRV [CD226, Q15762]
below the threshold	KSRPENGTVC [TMEM178B, H3BS89]
4.06	TNSKQGETTV [FZD1, Q9UP38]
below the threshold	THHRKIHTRV [ZNF599, Q96NL3]
below the threshold	AHGSTRDQSI [KCNB1, Q14721]
4.27	NKSEPFLTWL [WWTR1, Q9GZV5]
4.5	AKADAQESRL [PLCB2, Q00722]
below the threshold	PEKVSNTTVV [IGSF5, Q9NSI5]
below the threshold	VISSDDLTEL [CAPN6, Q9Y6Q1]
below the threshold	RGKNRRQSIF [CDK18, Q07002]

target: NHERF2_2, Q15599; assay: holdup assay; set-up: key: below the threshold = too weak to quantify, mostly under pKd 3.1 to 4; conditions: plain residues with an end cap or a label only (N-terminal biotin on a linker: ado-ado)
Sequence (Q15599 142-238): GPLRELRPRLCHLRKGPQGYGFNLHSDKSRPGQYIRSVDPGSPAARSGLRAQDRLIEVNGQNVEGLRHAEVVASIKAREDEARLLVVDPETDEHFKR

Binder	pKd
SRPHTNETSL [MCC, P23508]	4.49
GSQSQVETEA [FKBP4, Q02790]	below the threshold
PSVYSRSQYV [CLDN8, P56748]	below the threshold
VKQYADVEGF [HNRNPK, P61978;P61978-2]	below the threshold
QQGLLPHSSC [TYRO3, Q06418]	below the threshold
FHSIKQSTAV [CRHR1, P34998]	below the threshold
QLGSPTADLA [SIPA1, Q96FS4]	below the threshold
GDSSRKEYFI [GYPC, P04921]	below the threshold
ATKDKKITTV [EXOC4, Q96A65]	3.6
EAVTVESTSL [SLC22A11, Q9NSA0]	5.45

Further lines, results first:

pKd	Binder
3.56	IQISELETNV [SLC1A7, O00341]
4.04	FLVTEFNVML [DFNB31, Q9P202]
below the threshold	TFSRRPKTRV [CD226, Q15762]
below the threshold	KSRPENGTVC [TMEM178B, H3BS89]
3.51	TNSKQGETTV [FZD1, Q9UP38]
below the threshold	THHRKIHTRV [ZNF599, Q96NL3]
below the threshold	AHGSTRDQSI [KCNB1, Q14721]
5.27	NKSEPFLTWL [WWTR1, Q9GZV5]
5.19	AKADAQESRL [PLCB2, Q00722]
below the threshold	PEKVSNTTVV [IGSF5, Q9NSI5]
4.28	VISSDDLTEL [CAPN6, Q9Y6Q1]
below the threshold	RGKNRRQSIF [CDK18, Q07002]
